Test results from patent US9730980B2.

Target: NR1D1 (pCDNA-Nr1d1 expression vector)

## r-h-apoA-IV
  luciferase activity driven by the human G6pase promoter: 14.5%
